{"source": "patent US20130243743A1", "about": "(ACCELERON PHARMA, published 2013)", "binders": {"B1": {"name": "Soluble ActRIIB-Fc +15tail (Fc fusion)", "chain": "GRGEAETRECIYYNANWELERTNQSGLERCEGEQDKRLHCYASWANSSGTIELVKKGCWLDDFNCYDRQECVATEENPQVYFCCCEGNFCNERFTHLPEAGGPEVTYEPPPTAPT", "notes": "not shown: linker and Fc"}, "B2": {"name": "ActRIIB(20-132)-hFc (Fc fusion, not shown: a dimerising Fc or GST)", "chain": "GRGEAETRECIYYNANWELERTNQSGLERCEGEQDKRLHCYASWRNSSGTIELVKKGCWLDDFNCYDRQECVATEENPQVYFCCCEGNFCNERFTHLPEAGGPEVTYEPPPTA"}, "B3": {"name": "ActRIIB(20-134)-hFc (Fc fusion, not shown: a dimerising Fc or GST)", "chain": "B1 chain with A45R"}, "B4": {"name": "ActRIIB(22-131)-hFc (Fc fusion, not shown: a dimerising Fc or GST)", "chain": "GEAETRECIYYNANWELERTNQSGLERCEGEQDKRLHCYASWRNSSGTIELVKKGCWLDDFNCYDRQECVATEENPQVYFCCCEGNFCNERFTHLPEAGGPEVTYEPPPT"}, "B5": {"name": "ActRIIB(20-128)-hFc (Fc fusion, not shown: a dimerising Fc or GST)", "chain": "GRGEAETRECIYYNANWELERTNQSGLERCEGEQDKRLHCYASWRNSSGTIELVKKGCWLDDFNCYDRQECVATEENPQVYFCCCEGNFCNERFTHLPEAGGPEVTYEP"}, "B6": {"name": "ActRIIB(20-131)-hFc (Fc fusion, not shown: a dimerising Fc or GST)", "chain": "GRGEAETRECIYYNANWELERTNQSGLERCEGEQDKRLHCYASWRNSSGTIELVKKGCWLDDFNCYDRQECVATEENPQVYFCCCEGNFCNERFTHLPEAGGPEVTYEPPPT"}, "B7": {"name": "ActRIIB(23-131)-hFc (Fc fusion, not shown: a dimerising Fc or GST)", "chain": "EAETRECIYYNANWELERTNQSGLERCEGEQDKRLHCYASWRNSSGTIELVKKGCWLDDFNCYDRQECVATEENPQVYFCCCEGNFCNERFTHLPEAGGPEVTYEPPPT"}, "B8": {"name": "ActRIIB(24-131)-hFc (Fc fusion, not shown: a dimerising Fc or GST)", "chain": "AETRECIYYNANWELERTNQSGLERCEGEQDKRLHCYASWRNSSGTIELVKKGCWLDDFNCYDRQECVATEENPQVYFCCCEGNFCNERFTHLPEAGGPEVTYEPPPT"}, "B9": {"name": "ActRIIB(21-131)-hFc (Fc fusion, not shown: a dimerising Fc or GST)", "chain": "RGEAETRECIYYNANWELERTNQSGLERCEGEQDKRLHCYASWRNSSGTIELVKKGCWLDDFNCYDRQECVATEENPQVYFCCCEGNFCNERFTHLPEAGGPEVTYEPPPT"}}, "note": "Residue numbers refer to the chain shown, from its start.", "data": [{"target": "T1, Activin A (UniProt P08476 311-426)", "T1 construct": "also called ActA", "T1 sequence (looked up)": "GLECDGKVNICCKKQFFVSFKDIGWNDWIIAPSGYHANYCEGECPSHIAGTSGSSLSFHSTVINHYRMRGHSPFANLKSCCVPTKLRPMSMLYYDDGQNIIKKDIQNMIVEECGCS", "assay": "Biacore SPR; ligand coupled to the device, receptor flowed (table reproduced from WO2006/012627); +15tail variant; ligand coupled to the device, receptor flowed over it (data from WO2006/012627)", "details": "not given", "units": {"Kd": "nM"}, "values": [{"binder": "B1", "Kd": "~26"}]}, {"target": "T2, Growth and Differentiation Factor-11 (GDF11) (UniProt O95390 299-407)", "T2 construct": "also called BMP11", "T2 sequence (looked up)": "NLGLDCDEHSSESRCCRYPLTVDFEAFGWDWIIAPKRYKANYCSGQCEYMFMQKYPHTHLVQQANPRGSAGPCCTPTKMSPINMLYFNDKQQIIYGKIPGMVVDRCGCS", "assay": "Biacore SPR; ligand coupled to the device, receptor flowed (table reproduced from WO2006/012627); +15tail variant; ligand coupled to the device, receptor flowed over it (data from WO2006/012627)", "details": "not given", "units": {"Kd": "nM"}, "values": [{"binder": "B1", "Kd": 19}]}, {"target": "T1, Activin A", "assay": "cell-based or functional assay", "details": "not given", "units": {"IC50, inhibition of ligand signalling, A-204 reporter gene assay (conditioned media)": "µg/mL"}, "values": [{"binder": "B2", "IC50, inhibition of ligand signalling, A-204 reporter gene assay (conditioned media)": 0.032}, {"binder": "B3", "IC50, inhibition of ligand signalling, A-204 reporter gene assay (conditioned media)": 0.022}, {"binder": "B4", "IC50, inhibition of ligand signalling, A-204 reporter gene assay (conditioned media)": 0.1}, {"binder": "B5", "IC50, inhibition of ligand signalling, A-204 reporter gene assay (conditioned media)": 0.158}, {"binder": "B6", "IC50, inhibition of ligand signalling, A-204 reporter gene assay (conditioned media)": 0.201}, {"binder": "B7", "IC50, inhibition of ligand signalling, A-204 reporter gene assay (conditioned media)": 0.043}, {"binder": "B8", "IC50, inhibition of ligand signalling, A-204 reporter gene assay (conditioned media)": 0.105}, {"binder": "B9", "IC50, inhibition of ligand signalling, A-204 reporter gene assay (conditioned media)": 0.325}]}, {"target": "T1, Activin A", "assay": "cell-based or functional assay", "details": "record 2", "units": {"IC50, inhibition of ligand signalling, A-204 reporter gene assay (conditioned media)": "µg/mL"}, "values": [{"binder": "B6", "IC50, inhibition of ligand signalling, A-204 reporter gene assay (conditioned media)": 0.044}]}, {"target": "T2, Growth and Differentiation Factor-11 …", "assay": "cell-based or functional assay", "details": "not given", "units": {"IC50, inhibition of ligand signalling, A-204 reporter gene assay (conditioned media)": "µg/mL"}, "values": [{"binder": "B2", "IC50, inhibition of ligand signalling, A-204 reporter gene assay (conditioned media)": 0.087}, {"binder": "B3", "IC50, inhibition of ligand signalling, A-204 reporter gene assay (conditioned media)": 0.045}, {"binder": "B4", "IC50, inhibition of ligand signalling, A-204 reporter gene assay (conditioned media)": 0.071}, {"binder": "B5", "IC50, inhibition of ligand signalling, A-204 reporter gene assay (conditioned media)": 0.13}, {"binder": "B6", "IC50, inhibition of ligand signalling, A-204 reporter gene assay (conditioned media)": 0.183}, {"binder": "B7", "IC50, inhibition of ligand signalling, A-204 reporter gene assay (conditioned media)": 0.06}, {"binder": "B8", "IC50, inhibition of ligand signalling, A-204 reporter gene assay (conditioned media)": 0.069}, {"binder": "B9", "IC50, inhibition of ligand signalling, A-204 reporter gene assay (conditioned media)": 0.121}]}, {"target": "T2, Growth and Differentiation Factor-11 …", "assay": "cell-based or functional assay", "details": "record 2", "units": {"IC50, inhibition of ligand signalling, A-204 reporter gene assay (conditioned media)": "µg/mL"}, "values": [{"binder": "B6", "IC50, inhibition of ligand signalling, A-204 reporter gene assay (conditioned media)": 0.12}]}]}
